# Experimental data reported in US20240109955A1.
# Where two headings read alike, the source gives them in different places.
# B1: A19-46 + E8 + B8 (protein)
# VH 1: QVQLVESGGGVVQPGRSLRLSCAASGFTLSSYGMHWVRQAPGKGLEWVAVISYDGSNKYYVDSVKGRFTISRDNSKNTLYLQMNSLRAEDTAVYYCRWAYWELLPDYYYGMDVWGQGTTVTVSS
# VL 1: QTVVTQEPSFSVSPGGTVTLTCGLSSGSVSTAYFPSWYQQTPGQAPRTLIYGTNTRSSGVPDRFSGSILGNKAALTITGAQADDESDYYCVLYMGRGIVVFGGGTKLTVL
# VH 2: QVTLRESGPALVKPTQTLTLTCTFSGFSLSTRGVCVSWIRQPPGKALEWLAFIDWDDDKYYNTSLKTRLTISKDTSKNQVVLTMTNVHPVDTATYYCARISSHHGSSWCTTFDYWGQGALVTVSA
# VL 2: DTVMTQSPLSLPVTPGEPASISCRSSQSLLNSNGYNYLDWYVQKPGQSPQLLIYLGSNRASGVPDRFSGSGSGTDFTLKISRVEAEDVGVYYCMQPLQTPLFTFGPGTKVEIK
# VH 3: EVQLVESGGALIQPGGSLRLSCAASGIIVSANYMSWVRQAPGKGLEWVSVIYSGGSTFYADSVKGRFTISRDNSKNTLYLEMNSLRAEDTAVYYCARDAPILGVSDWGQGTLVTVSS
# VL 3: EIVMTQSPAILSVSPGERATLSCRASQSVAINLAWYQQKPGQAPRLLIYAASSRATGIPGRFSGSGSETNFTLTISSLQSGDFAVYYCQQYITWPPSYTFGQGTKLEIK
# B2: A46 + E12 + E8 (protein)
# VH 1: QVQLVESGGGVVQPGRSLRLSCAASGFTLSSYGMHWVRQAPGKGLEWVAVISYDGSNKYYVDSVKGRFTISRDNSKNTLYLQMNSLRAEDTAVYYCRWAYWELLPDYYYGMDVWGQGTTVTVSS
# VL 1: QTVVTQEPSFSVSPGGTVTLTCGLSSGSVSTAYFPSWYQQTPGQAPRTLIYGTNTRSSGVPDRFSGSILGNKAALTITGAQADDESDYYCVLYMGRGIVVFGGGTKLTVL
# VH 2: EVQLVESGGGLIQPGGSLRLSCAASGVIVSYNYMNWVRQAPGKGLEWVSVIYSGGSTFYADSVRGRFTISRDNSKNTLYLQMNSLRAEDTAVYYCARDLGPAGAFDIWGLGTMVTVSS
# VL 2: EIVLTQSPGTLSLSPGETATLSCRASQSFSSDLAWYQQKPGQAPRLLIYGASSRATGIPDRFSGSGSGTDFTLTISRLEPADFAVYYCQQYGSSPPVTFGGGTKVEIK
# VH 3: QVTLRESGPALVKPTQTLTLTCTFSGFSLSTRGVCVSWIRQPPGKALEWLAFIDWDDDKYYNTSLKTRLTISKDTSKNQVVLTMTNVHPVDTATYYCARISSHHGSSWCTTFDYWGQGALVTVSA
# VL 3: DTVMTQSPLSLPVTPGEPASISCRSSQSLLNSNGYNYLDWYVQKPGQSPQLLIYLGSNRASGVPDRFSGSGSGTDFTLKISRVEAEDVGVYYCMQPLQTPLFTFGPGTKVEIK
# B3: MX1041 (bispecific antibody)
# chain: QTVVTQEPSFSVSPGGTVTLTCGLSSGSVSTAYFPSWYQQTPGQAPRTLIYGTNTRSSGVPDRFSGSILGNKAALTITGAQADDESDYYCVLYMGRGIVVFGGGTKLTVLGGSSGEIVLTQSPGTLSLSPGETATLSCRASQSFSSDLAWYQQKPGQAPRLLIYGASSRATGIPDRFSGSGSGTDFTLTISRLEPADFAVYYCQQYGSSPPVTFGGGTKVEIKGGGGSGGSGSGGGGSASGSGEVQLVESGGGLIQPGGSLRLSCAASGVIVSYNYMNWVRQAPGKGLEWVSVIYSGGSTFYADSVRGRFTISRDNSKNTLYLQMNSLRAEDTAVYYCARDLGPAGAFDIWGLGTMVTVSSGGSSGQVQLVESGGGVVQPGRSLRLSCAASGFTLSSYGMHWVRQAPGKGLEWVAVISYDGSNKYYVDSVKGRFTISRDNSKNTLYLQMNSLRAEDTAVYYCRWAYWELLPDYYYGMDVWGQGTTVTVSSASGGSGDKTHTCPPCPAPELLGGPSVFLFPPKPKDTLMISRTPEVTCVVVDVSHEDPEVKFNWYVDGVEVHNAKTKPREEQYNSYVVSVLTVLHQDWLNGKEYKCKVSNKALPAPIEKTISKAKGQPREPQVYTLPPSRDELTKNQVSLTCLVKGFYPSDIAVEWESNGQPENNYKTTPPVLDSDGSFFKKLTVDKSRWQQGNVFSCSVLHEALHSHYTQKSLSLSPG
# Columns and labels:
# Assay in all cases: cell-based or functional assay
# [1] = target: SARS-CoV-2 spike (S) protein, Omicron sublineage XBB (SARS-CoV-2)
# [2] = target: SARS-CoV-2 spike (S) protein, Omicron sublineage BQ.1 (SARS-CoV-2)
# [3] = target: SARS-CoV-2 spike (S) protein, Omicron sublineage BQ.1.1 (SARS-CoV-2)
# [4] = target: SARS-CoV-2 spike (S) protein, Omicron sublineage XBB (SARS-CoV-2); remark: listed apart in the source
# [5] = target: SARS-CoV-2 spike (S) protein, Omicron sublineage BF.7 (SARS-CoV-2)
# [6] = target: SARS-CoV-2 spike (S) protein, Omicron sublineage XBB1.5 (SARS-CoV-2)
# [7] = target: SARS-CoV-2 Omicron BF.7 spike protein (SARS-CoV-2)
# [8] = target: SARS-CoV-2 Omicron BQ.1.1 spike protein (SARS-CoV-2)
# [9] = target: SARS-CoV-2 Omicron BA.4/5 spike protein (SARS-CoV-2)
# [10] = target: SARS-CoV-2 Omicron BQ.1 spike protein (SARS-CoV-2)
# [11] = target: SARS-CoV-2 Omicron BA.4.6 spike protein (SARS-CoV-2)
# [12] = target: SARS-CoV-2 Omicron XBB spike protein (SARS-CoV-2)
# [13] = target: SARS-CoV-2 Omicron BA.2.75.2 spike protein (SARS-CoV-2)
binder,measurement,setting,value
B1,"IC50, pseudovirus neutralization",[1],0.0113 µg/mL
same,"IC80, pseudovirus neutralization",[1],0.0177 µg/mL
same,"IC50, pseudovirus neutralization",[2],0.016 µg/mL
same,"IC80, pseudovirus neutralization",[2],0.0522 µg/mL
same,"IC50, pseudovirus neutralization",[3],0.0111 µg/mL
same,"IC80, pseudovirus neutralization",[3],0.017 µg/mL
same,"IC50, pseudovirus neutralization",[4],11.3 nM
same,"IC80, pseudovirus neutralization",[4],17.7 nM
B2,"IC50, pseudovirus neutralization",[5],12 nM
same,"IC80, pseudovirus neutralization",[5],30.6 nM
same,"IC50, pseudovirus neutralization",[6],37.8 nM
same,"IC80, pseudovirus neutralization",[6],96.7 nM
B3,"IC50, pseudovirus neutralization",[7],0.00835 µg/mL
same,"IC80, pseudovirus neutralization",[7],0.0304 µg/mL
same,"IC50, pseudovirus neutralization",[8],0.0493 µg/mL
same,"IC80, pseudovirus neutralization",[8],0.11 µg/mL
same,"IC50, pseudovirus neutralization",[9],0.012 µg/mL
same,"IC80, pseudovirus neutralization",[9],0.0262 µg/mL
same,"IC50, pseudovirus neutralization",[10],0.0429 µg/mL
same,"IC80, pseudovirus neutralization",[10],0.188 µg/mL
same,"IC50, pseudovirus neutralization",[11],0.0257 µg/mL
same,"IC80, pseudovirus neutralization",[11],0.0671 µg/mL
same,"IC50, pseudovirus neutralization",[12],0.0691 µg/mL
same,"IC80, pseudovirus neutralization",[12],0.398 µg/mL
same,"IC50, pseudovirus neutralization",[13],0.0129 µg/mL
same,"IC80, pseudovirus neutralization",[13],0.0362 µg/mL
